In US20190119388A1 (GREEN CROSS, published 2019):
One block for each molecule: values may come before it.

Tests used:
Assay in all cases: cell-based or functional assay
[1] = target: epidermal growth factor receptor (EGFR) on gastric cancer cell lines NCI-N87, AGS and NUGC3 (UniProt P00533)
[2] = target: T1, epidermal growth factor receptor (EGFR) on gastric cancer cell lines NCI-N87, AGS and NUGC3 (UniProt P00533 25-1210, limits assumed)
[3] = target: T1, epidermal growth factor receptor (EGFR) …; remark: listed apart in the source
[4] = target: T1, epidermal growth factor receptor (EGFR) …; remark: listed apart in the source
[5] = target: T1, epidermal growth factor receptor (EGFR) …; remark: listed apart in the source
[6] = target: T1, epidermal growth factor receptor (EGFR) …; remark: listed apart in the source
[7] = target: T1, epidermal growth factor receptor (EGFR) …; remark: listed apart in the source

Molecule: TGF-α (transforming growth factor-α) (from UniProt P01135 40-89) (ligand)
increase of cell invasion (NUGC3, TGF-α 10 ng/ml) [1]: 1.7 fold
increase of cell invasion (NUGC3, TGF-α 20 ng/ml) [1]: 1.9 fold
increase of cell invasion (NUGC3, TGF-α 50 ng/ml) [1]: 1.9 fold
increase of invasion against control (AGS, TGF-α 10 ng/ml) [1]: 1.8 fold
increase of invasion against control (AGS, TGF-α 20 ng/ml) [1]: 1.8 fold
increase of invasion against control (AGS, TGF-α 50 ng/ml) [1]: 1.9 fold

Molecule: HB-EGF (heparin binding-EGF-like growth factor) (from UniProt Q99075 63-148) (ligand)
increase of cell invasion (NUGC3, HB-EGF 10 ng/ml) [1]: 2.3 fold
increase of cell invasion (NUGC3, HB-EGF 20 ng/ml) [1]: 3.5 fold
increase of cell invasion (NUGC3, HB-EGF 50 ng/ml) [1]: 4.8 fold
increase of invasion against control (AGS, HB-EGF 10 ng/ml) [1]: 4.1 fold
increase of invasion against control (AGS, HB-EGF 20 ng/ml) [1]: 4.5 fold
increase of invasion against control (AGS, HB-EGF 50 ng/ml) [1]: 3.9 fold

More lines, now with the values ahead:

increase of cell invasion (NUGC3, AREG 200 ng/ml) [1]: 1.3 fold
increase of cell invasion (NUGC3, AREG 500 ng/ml) [1]: 1.5 fold
Molecule: AREG (amphiregulin) (from UniProt P15514 101-198) (ligand)

invaded cells relative to HB-EGF alone, % of OD (NUGC3, HB-EGF 50 ng/ml, antibody 1 µg/ml), Average (%) [2]: 39.2%
invaded cells relative to HB-EGF alone, % of OD (NUGC3, HB-EGF 50 ng/ml, antibody 1 µg/ml), set 1-1 [2]: 18.8%
invaded cells relative to HB-EGF alone, % of OD (NUGC3, HB-EGF 50 ng/ml, antibody 1 µg/ml), set 1-2 [2]: 21%
invaded cells relative to HB-EGF alone, % of OD (NUGC3, HB-EGF 50 ng/ml, antibody 1 µg/ml), set 2-1 [2]: 57.7%
invaded cells relative to HB-EGF alone, % of OD (NUGC3, HB-EGF 50 ng/ml, antibody 1 µg/ml), set 2-2 [2]: 64.2%
invaded cells relative to HB-EGF alone, % of OD (NUGC3, HB-EGF 50 ng/ml, antibody 1 µg/ml), set 3-1 [2]: 41.7%
invaded cells relative to HB-EGF alone, % of OD (NUGC3, HB-EGF 50 ng/ml, antibody 1 µg/ml), set 3-2 [2]: 31.9%
invaded cells relative to AREG alone, % of OD (AGS, AREG 1,000 ng/ml, antibody 1 µg/ml), Average (%) [3]: 55.4%
invaded cells relative to AREG alone, % of OD (AGS, AREG 1,000 ng/ml, antibody 1 µg/ml), set 1-1 [3]: 55.3%
invaded cells relative to AREG alone, % of OD (AGS, AREG 1,000 ng/ml, antibody 1 µg/ml), set 1-2 [3]: 61.3%
invaded cells relative to AREG alone, % of OD (AGS, AREG 1,000 ng/ml, antibody 1 µg/ml), set 2-1 [3]: 51.8%
invaded cells relative to AREG alone, % of OD (AGS, AREG 1,000 ng/ml, antibody 1 µg/ml), set 2-2 [3]: 53.1%
invaded cells relative to TGF-α alone, % of OD (AGS, TGF-α 20 ng/ml, antibody 1 µg/ml), Average (%) [4]: 44.1%
invaded cells relative to TGF-α alone, % of OD (AGS, TGF-α 20 ng/ml, antibody 1 µg/ml), set 1-1 [4]: 45.1%
invaded cells relative to TGF-α alone, % of OD (AGS, TGF-α 20 ng/ml, antibody 1 µg/ml), set 1-2 [4]: 41.6%
invaded cells relative to TGF-α alone, % of OD (AGS, TGF-α 20 ng/ml, antibody 1 µg/ml), set 2-1 [4]: 31.2%
invaded cells relative to TGF-α alone, % of OD (AGS, TGF-α 20 ng/ml, antibody 1 µg/ml), set 2-2 [4]: 33.8%
invaded cells relative to TGF-α alone, % of OD (AGS, TGF-α 20 ng/ml, antibody 1 µg/ml), set 3-1 [4]: 57.9%
invaded cells relative to TGF-α alone, % of OD (AGS, TGF-α 20 ng/ml, antibody 1 µg/ml), set 3-2 [4]: 54.8%
invaded cells relative to TGF-α alone, % of OD (NUGC3, TGF-α 50 ng/ml, antibody 1 µg/ml), Average (%) [5]: 32.5%
invaded cells relative to TGF-α alone, % of OD (NUGC3, TGF-α 50 ng/ml, antibody 1 µg/ml), set 1-1 [5]: 31.5%
invaded cells relative to TGF-α alone, % of OD (NUGC3, TGF-α 50 ng/ml, antibody 1 µg/ml), set 1-2 [5]: 27.3%
invaded cells relative to TGF-α alone, % of OD (NUGC3, TGF-α 50 ng/ml, antibody 1 µg/ml), set 2-1 [5]: 31.4%
invaded cells relative to TGF-α alone, % of OD (NUGC3, TGF-α 50 ng/ml, antibody 1 µg/ml), set 2-2 [5]: 30%
invaded cells relative to TGF-α alone, % of OD (NUGC3, TGF-α 50 ng/ml, antibody 1 µg/ml), set 3-1 [5]: 36.4%
invaded cells relative to TGF-α alone, % of OD (NUGC3, TGF-α 50 ng/ml, antibody 1 µg/ml), set 3-2 [5]: 38.3%
invaded cells relative to AREG alone, % of OD (NUGC3, AREG 500 ng/ml, antibody 1 µg/ml), Average (%) [6]: 54.8%
invaded cells relative to AREG alone, % of OD (NUGC3, AREG 500 ng/ml, antibody 1 µg/ml), set 1-1 [6]: 40.2%
invaded cells relative to AREG alone, % of OD (NUGC3, AREG 500 ng/ml, antibody 1 µg/ml), set 1-2 [6]: 50.7%
invaded cells relative to AREG alone, % of OD (NUGC3, AREG 500 ng/ml, antibody 1 µg/ml), set 2-1 [6]: 59.8%
invaded cells relative to AREG alone, % of OD (NUGC3, AREG 500 ng/ml, antibody 1 µg/ml), set 2-2 [6]: 59.6%
invaded cells relative to AREG alone, % of OD (NUGC3, AREG 500 ng/ml, antibody 1 µg/ml), set 3-1 [6]: 62.4%
invaded cells relative to AREG alone, % of OD (NUGC3, AREG 500 ng/ml, antibody 1 µg/ml), set 3-2 [6]: 56.1%
invaded cells relative to HB-EGF alone, % of OD (AGS, HB-EGF 20 ng/ml, antibody 1 µg/ml), Average (%) [7]: 49.6%
invaded cells relative to HB-EGF alone, % of OD (AGS, HB-EGF 20 ng/ml, antibody 1 µg/ml), set 1-1 [7]: 50.6%
invaded cells relative to HB-EGF alone, % of OD (AGS, HB-EGF 20 ng/ml, antibody 1 µg/ml), set 1-2 [7]: 56.8%
invaded cells relative to HB-EGF alone, % of OD (AGS, HB-EGF 20 ng/ml, antibody 1 µg/ml), set 2-1 [7]: 57.7%
invaded cells relative to HB-EGF alone, % of OD (AGS, HB-EGF 20 ng/ml, antibody 1 µg/ml), set 2-2 [7]: 64.2%
invaded cells relative to HB-EGF alone, % of OD (AGS, HB-EGF 20 ng/ml, antibody 1 µg/ml), set 3-1 [7]: 33.3%
invaded cells relative to HB-EGF alone, % of OD (AGS, HB-EGF 20 ng/ml, antibody 1 µg/ml), set 3-2 [7]: 34.9%
B1: GC1118 (antibody, human IgG1, kappa, V domains shown)
VH: EVQLVESGGGVVQPGGSLRLSCAASGFTFSDYDMSWIRQAPGKGLEWVSGILGGSERSYYRDSVKGRFTISRDNSRKTLYLQMNSLRAEDTAVYYCARHGSPGYTLYAWDYWGQGTTVTVSS
VL: DIVMTQTPLSLPVTPGEPASISCRSNQDLTHSNGNTYLEWYLQKPGQSPRLLIYKVSNRFSGVPDRFSGSGAGTDFTLRISRVEAEDVGVYYCMQGTHWPWTFGQGTKVDIKR
